This is an account of results in PMC10136361, “Inhibition Analysis and High-Resolution Crystal Structure of Mus musculus Glutathione Transferase P1-1” (Biomolecules, 2023).

Substrate in this series: N[C@@H](CCC(=O)N[C@@H](CS)C(=O)NCC(=O)O)C(=O)O
As to the kind of experiment: purified protein. As to conditions: G-site.

B1: MmGSTP1-1 (Mus musculus) (protein)
chain: PPYTIVYFPVRGRCEAMRMLLADQGQSWKEEVVTIDTWMQGLLKPTCLYGQLPKFEDGDLTLYQSNAILRHLGRSLGLYGKNQREAAQMDMVNDGVEDLRGKYVTLIYTNYENGKNDYVKALPGHLKPFETLLSQNQGGKAFIVGDQISFADYNLLDLLLIHQVLAPGCLDNFPLLSAYVARLSARPKIKAFLSSPEHVNRPINGNGKQ
Take B1: the Km (usually the substrate concentration at which the rate is half of its maximum) amounted to 220 ± 10 µM.
